# B1: full-length recombinant human MTHFR (HsMTHFR1–656), as purified (phosphorylated) (enzyme)
# chain: not shown
# modifications: phosphorylated with partial occupancy, up to ten sites occupied simultaneously: Ser9, Ser10, Ser18, Ser20, Ser21, Ser23, Ser25, Ser26, Ser29, Ser30, Thr34, Tyr90, Thr94, Ser103, Ser394, Thr451
# notes: human 5,10-methylenetetrahydrofolate reductase (MTHFR), 656 amino acids, residues 1–656, numbered according to NP_005948.3; also called 5,10-methylenetetrahydrofolate reductase; phosphorylated HsMTHFR_(1–656); source: Sf9 (baculovirus), purified (Ni-NTA, Superdex 200, tag cleaved by TEV protease, re-passaged over Ni-NTA); not shown: FLAG, C-terminal, cleaved; His10, C-terminal, cleaved
# B2: CIP-treated HsMTHFR1–656 (dephosphorylated) (enzyme)
# chain: not shown
# notes: human 5,10-methylenetetrahydrofolate reductase (MTHFR), residues 1–656, numbered according to NP_005948.3; Same construct as m1 after removal of 9 or 10 phosphate groups by CIP; Some residues of the cleaved C-terminal tag may be left; also called HsMTHFR_(1–656) (CIP); dephosphorylated HsMTHFR_(1–656); not shown: FLAG, C-terminal, cleaved; His10, C-terminal, cleaved
# B3: HsMTHFR38–644 (domain or fragment)
# chain: not shown
# notes: Not phosphorylated; Native and SeMet-derivatized protein were crystallized; also called truncated HsMTHFR; crystallized construct
# Target: the molecule itself
# Assay: native MS; protein desalted into 50 mM ammonium acetate pH 6.5, infused directly, positive ion ESI-QTOF; as purified or after CIP treatment
row,Protein,stoichiometry N
1,B1,2
2,B2,2
3,B3,2

# Reference: PMC5995969, “Structural basis for the regulation of human 5,10-methylenetetrahydrofolate reductase by phosphorylation and S-adenosylmethionine inhibition” (Nature Communications, 2018)
